For one substance, stoichiometry N results are on record in publication PMC8144572.

Usually stoichiometry N stands for a count of units in the complex or per binding partner.

The target in the test is truncated NpSRII/NpHtrII137 complex (Natronomonas pharaonis) (UniProt P42196). Description: SAXS; detergent-solubilised (DDM) complex, peak fractions after gel filtration; low salt (150 mM NaCl); 0.57 mg/ml full-length and 0.78 mg/ml truncated complex; BM29 (ESRF); curves fitted with atomistic dimer models with a detergent belt (MEMPROT, CRYSOL3).

truncated NpSRII/NpHtrII137 complex, sequence (P42196 whole entry, the tested form may be a part): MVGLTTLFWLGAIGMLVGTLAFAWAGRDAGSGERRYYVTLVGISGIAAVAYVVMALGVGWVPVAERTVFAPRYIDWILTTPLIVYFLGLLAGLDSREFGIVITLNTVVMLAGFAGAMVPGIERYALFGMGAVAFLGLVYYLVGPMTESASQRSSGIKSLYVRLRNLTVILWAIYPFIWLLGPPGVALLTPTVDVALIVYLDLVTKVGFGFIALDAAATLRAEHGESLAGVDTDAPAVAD
truncated NpSRII/NpHtrII137 complex, sequence (P42259 1-136): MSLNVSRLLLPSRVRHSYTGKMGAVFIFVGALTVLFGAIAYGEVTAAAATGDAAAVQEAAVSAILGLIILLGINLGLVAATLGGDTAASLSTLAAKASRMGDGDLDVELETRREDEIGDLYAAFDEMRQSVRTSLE

As to “truncated NpSRII/NpHtrII137 complex (from UniProt P42196 1-239; P42259 1-136)”, the stoichiometry N amounted to 2.
